Data taken from the supplement of paper PMC9170038.

System: MS2 coat protein
Test: apparent KD of MS2 coat protein; higher = weaker reporter binding
Conditions: Eterna round: R107
How it was run: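 Designed RNA switches, transcribed on-chip from Illumina sequencing clusters, were titrated with SNAP-549-labelled MS2 coat protein from 0.7 or 1.5 nM to 3 µM in twofold steps. The solution was 100 mM Tris-HCl pH 7.5, 80 mM KCl, 4 mM MgCl2, with constant ligand or without it. Apparent KD is the median over each design's normalised cluster binding-curve fits.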

[1] = input ligand: theophylline 20 uM
[2] = input ligand: theophylline 2 mM
[3] = input ligand: tryptophan 2.4 mM

Sequence | apparent KD of MS2 coat protein (input ligand: arginine 13.2 mM) [nM] | apparent KD of MS2 coat protein [1] [nM] | apparent KD of MS2 coat protein [2] [nM] | apparent KD of MS2 coat protein (input ligand: none) [nM] | apparent KD of MS2 coat protein [3] [nM]
UUCGUAUUGUCGGCCGCCACUGCAACAUGAGGAUCACCCAUGUAAGAAUGGUUGUAAAUAUAUUACAGGACCGGGACAAUAGUAA [JR_ExcTryptoB_Sub018] | 16 | 24.1 | 23.4 | – | –
UUCGUUUGCGGAAGGAGCGACGGACAUCGGUGACCCACGCACAUGAGGAUCACCCAUGUACGUCAGGUAGGUCGCCGCUAAGAGU [XArg-B4] | 20.3 | 47.4 | 41.3 | 17.4 | 12.4
UUCUACAUGAGGAUCACCCAUGUGGGUGAUACCAGCACUUUUUGGUGCCCUUGGCAGCACAUGAGAAUACCGUACGAUCGGCGAU [Arainbi] | 122 | 500 | – | – | 609
UUGACAUGAGGAUCACCCAUGUAAACUGAAGGAGCGUCGAAAAUGACAGGUAGGUCGCAGAAUAAUAAAGGUGAUGGUAAAUAUU [Exclusion Arginine AGF1] | 21.4 | 34.5 | 29.6 | 22.3 | 29.3
UUGGAUAUGCGAAGGAGCGGGAAAUAUAUAUAUAUAAUCCUAACAUGAGGAUCACCCAUGUCCCAGGUAGGUCGCGCAUAUUUGG [12.H] | 48.1 | 69.3 | 70.7 | 51.7 | 49.9
UUGGGUUUGUGAAGGAGCGGGAAAGUUUUAUAGUGGAUCCUAACAUGAGGAUCACCCAUGUCCCAGGUAGGUCGCGCGGGUUUGG [12.R] | 60.7 | 182 | 152 | 182 | 107
UUGUAUAUGCGAAGGAGCGGGAAAUAUAUAUAUAUAAUCCUAACAUGAGGAUCACCCAUGUCCCAGGUAGGUCGCGCAUAUGUGG [12.G] | 34.6 | 65.6 | 68.3 | 58.8 | 54.9
UUUAAAUAGACGGCCGCCACUGGAAUUAAUACAUGAGGAUCACCCAUGUAGAGAGAAUAAUAAUACAGGACCGGGUCUUCAUGAA [SS Tryp B Tesla 1] | 27.2 | 22.1 | 38.9 | – | –
UUUACAUGAGGAUCACCCAUGUGCCAUGAUACCAGACAUGAAAAUGUCCCUUGGCAGCAUGAAUAAUCCUCGUCGGGAAACCGAC [Lisen] | 110 | 195 | – | – | 70.8
UUUACAUGAGGAUCACCCAUGUGCCAUGAUACCAGACAUGAAAAUGUCCCUUGGCAGCAUGAGUGAAGCGUCGGGAAACCGACGC [Kninicky] | 57.1 | 229 | 297 | 249 | 261
UUUACAUGAGGAUCACCCAUGUGCCAUGAUACCAGACAUGAAAAUGUCCCUUGGCAGCAUGGGUGUAGCGUCGGGAAACCGACGC [Kohoutovice] | 97.5 | 545 | 909 | 35 | 14
UUUACCGACACAGAUCACUAAAACCUUGAUACCAGUCCCAGUGGCGACCCUUGGCAGCAAUAUACAUGAGGAUCACCCAUGUGCA [theeternabot_exclusion_MS2_Theo_A_1] | 13.7 | – | – | – | 13.8
UUUCUUUUCUUUCUUUCCUUUCAAACCGAAGGAGCGGGAACAAACCCAGGUAGGUCGCGGUGUGACAUGAGGAUCACCCAUGUGU [Exclusion - Arginine] | 65.5 | 106 | 85 | 78 | 58.1
UUUGAUAGGACAGAUACCAGCGUGUUGUUGAACAUGAGGAUCACCCAUGUAGUGAUCAAGCGCCCUUGGCAGCUGGUUUGUUAGG [7.M] | 95.5 | 240 | – | – | 302
UUUUAACAUGAGGAUCACCCAUGUAAUGAUACCAGAGACGAAAGUCUCCCUUGGCAGCAUAUAUCAUUACUCAUAGGAAACUAUG [Theophylline A 6] | 35.4 | 23.5 | – | – | 13.6
UUUUCAGGGUCGGCCGCCACUGGUAUGGCGAGUCCUCGAACAAACAUGAGGAUCACCCAUGUGAACAGGACCGGGACAGCAUGGG [Exclusion Tryptophan B GF 21] | 97.2 | 538 | 645 | 380 | 286
UUUUUCGCGGGUGAUACCAGCAAAGUUGUACUGGUCUGGUACAUGAGGAUCACCCAUGUUUGCCCUUGGCAGCGCUCGGGAGAAG [#22 Exclusion-TheophyllineB] | 33.2 | 39.2 | 32.7 | 21 | 23.5
